Experimental data: patent US20160272706A1 (AstraZeneca / MedImmune, published 2016)
Substitutions are numbered along the chain they refer to. In names and notes the source's numbering stands.

B1: 13NG0074 (antibody, V domains shown)
VH: QVQLVQSGAEVKKPGASVKVSCKASGYTFTNYGLSWVRQAPGQGLEWMGWINYDGGNTQYGQEFQGRVTMTTDTSTSTAYMELRSLRSDDTAVYYCARDSSSSWARWFFDLWGRGTLVTVSS
VL: SYVLTQPPSVSVAPGKTARIPCGGNLIGARLVHWYQQKPGQAPVLIMFDDQDRPSGIPERFSGSNSGNTATLTISRVEAGDEADYYCQVWDTGSLPVVFGGGTKLTVL
notes: IgG in the KinExA assay
B2: 13NG0073 (antibody, V domains shown)
VH: B1 VH
VL: B1 VL with M47I, F48M, Q51I, L95R
notes: IgG in the KinExA assay; also called IL13NG0073
B3: BAK1183H4 antibody (antibody, V domains shown)
VH: B1 VH
VL: B1 VL with L26I, A29S, R30K, I46V, M47I, F48Y, Q51G, L95D
notes: also called 1183H04; BAK1183H04
B4: 1183H4_VH_VL_nonGL IgG1-YTE (antibody, V domains shown)
VH: B1 VH
VL: B1 VL with L26I, A29S, R30K, I46V, M47I, F48Y, Q51G, L95D
notes: Non-germlined parent as IgG1 with the YTE mutations (M252Y/S254T/T256E, EU); also called Parent IgG1-YTE; parent clone
B5: 13NG0075 (scFv, V domains shown)
VH: B1 VH
VL: B1 VL with L26M, I27V, I46V, M47I, F48M, Q51I, L95R
notes: purified scFv from the mini-recombination library; member of group m20; also called ZZ0SEE-A06; copies: 1 + 1
B6: 13NG0069 (scFv, V domains shown)
VH: B1 VH
VL: B1 VL with L26M, I27V, M47I, F48M, Q51I, L95R
notes: purified scFv from the mini-recombination library; member of group m20; also called ZZ0SEA-A03; copies: 1 + 1
B7: 13NG0077 (scFv, V domains shown)
VH: B1 VH
VL: B1 VL with L26M, I27V, R30Y, M47V, F48Y, Q51M, L95S
notes: purified scFv from the mini-recombination library; member of group m20; also called ZZ0SED-A07; copies: 1 + 1
B8: 13NG0071 (scFv, V domains shown)
VH: B1 VH
VL: B1 VL with L26M, I27V, M47V, Q51E
notes: purified scFv from the mini-recombination library; member of group m20; also called ZZ0SEE-A09; copies: 1 + 1
B9: 13NG0076 (scFv, V domains shown)
VH: B1 VH
VL: B1 VL with L26M, I27V, I46V, M47I, F48M, Q51I, L95R
notes: purified scFv from the mini-recombination library; member of group m20; also called ZZ0SEA-F10; copies: 1 + 1
B10: 13NG0070 (scFv, V domains shown)
VH: B1 VH
VL: B1 VL with L26M, I27V, M47V, Q51E, L95R
notes: purified scFv from the mini-recombination library; member of group m20; also called ZZ0SED-B06; copies: 1 + 1
B11: 13NG0072 (scFv, V domains shown)
VH: B1 VH
VL: B1 VL with L26M, I27V, M47V, F48Y, Q51M, A79T, L95R
notes: purified scFv from the mini-recombination library; member of group m20; also called ZZ0SEA-H11; copies: 1 + 1
B12: 13NG0068 (scFv, V domains shown)
VH: B1 VH with M48V, S77G
VL: B1 VL with S9L, M47I, F48M, Q51I, L95D
notes: purified scFv from the mini-recombination library; member of group m20; also called ZZ0SEB-B02; copies: 1 + 1
B13: 13NG0067 (scFv, V domains shown)
VH: B1 VH with S85G
VL: B1 VL with L26M, I27V, M47I, F48M, Q51I, L95S
notes: purified scFv from the mini-recombination library; member of group m20; also called ZZ0SEF-H04; copies: 1 + 1
B14: 13NG0081 (scFv, V domains shown)
VH: B1 VH with M48V
VL: B1 VL with M47V, F48Y, Q51M, L95R
notes: purified scFv from the mini-recombination library; member of group m20; the text gives two different numbers for the VH; also called ZZ0SE9-C11; copies: 1 + 1
B15: 13NG0079 (scFv, V domains shown)
VH: B1 VH
VL: B1 VL with M47V, F48Y, Q51M
notes: purified scFv from the mini-recombination library; member of group m20; also called ZZ0SEA-B02; copies: 1 + 1
B16: 13NG0083 (antibody, V domains shown)
VH: B1 VH
VL: B1 VL with L26M, I27V, M47V, Q51E, L95S
notes: also called unmodified 13NG0083; WT
B17: 13NG0082 (scFv, V domains shown)
VH: B1 VH
VL: B1 VL with L26M, I27V, M47V, Q51E, L95R
notes: purified scFv from the mini-recombination library; member of group m20; also called ZZ0SEF-E03; copies: 1 + 1
B18: 13NG0078 (scFv, V domains shown)
VH: B1 VH with M48V
VL: B1 VL with G28A, A79T
notes: purified scFv from the mini-recombination library; member of group m20; also called ZZ0SFL-G06; copies: 1 + 1
B19: 13NG0085 (scFv, V domains shown)
VH: B1 VH
VL: B1 VL with L26M, I27V, M47I, F48M, Q51I, L95R
notes: purified scFv from the mini-recombination library; member of group m20; also called ZZ0SEF-G10; copies: 1 + 1
B20: 13NG0080 (scFv, V domains shown)
VH: B1 VH with V2A
VL: B1 VL with G28A, M47V, Q51E, A79T, L95S
notes: purified scFv from the mini-recombination library; member of group m20; also called ZZ0SEA-D07; copies: 1 + 1
B21: 13NG0084 (scFv, V domains shown)
VH: B1 VH
VL: B1 VL with G28A, M47V, Q51E, L95S
notes: purified scFv from the mini-recombination library; member of group m20; also called ZZ0SED-F07; copies: 1 + 1
B22: 13NG0087 (scFv, V domains shown)
VH: B1 VH
VL: B1 VL with L26M, I27V, G28A
notes: purified scFv from the mini-recombination library; member of group m20; also called ZZ0SEF-E05; copies: 1 + 1
B23: 13NG0086 (scFv, V domains shown)
VH: B1 VH
VL: B1 VL with L26M, I27V, M47V, F48Y, Q51M, L95R
notes: purified scFv from the mini-recombination library; member of group m20; also called ZZ0SEB-F04; copies: 1 + 1
B24: 13NG0088 (scFv, V domains shown)
VH: B1 VH
VL: B1 VL with I46V, M47I, F48M, Q51I, L95R
notes: purified scFv from the mini-recombination library; member of group m20; also called ZZ0SEC-C01; copies: 1 + 1

What follows are binders tested against T1, Human IL-13 (human, UniProt P35225 35-146) (assay: KinExA at 37° C., IgG fixed at 100 or 4 pM, human IL-13 titrated).
T1 construct: also called human interleukin 13 (Peprotech); the antigen

Point of comparison: B1, Kd 0.004 nM. Against it:
- B2 — within 1.5-fold, 0.0046 nM

The binders below were run against T1, Human IL-13 (assay: BIAcore).

B3 was tested, and the Kd was 0.081 nM.

These binders were tested against FLAG-tagged human IL-13 (R130 variant) (human, UniProt P35225 35-146) (assay: HTRF receptor-ligand competition; FLAG-tagged human IL-13 (312.5 pM) against DyLight650-labelled human IL-13Rα2 (10 nM); geometric mean).

Binder B4 has an IC50 of 1.34 nM.

Each binder was assayed against T1, Human IL-13 (assay: IC50 of the parent scFv divided by IC50 of the clone, biochemical receptor-ligand inhibition assay, purified scFv).

Point of comparison: B12, Fld improvement 7.5 fold. Against it:
- B3 — lower, 1 fold
- B5 — lower, 4.21 fold
- B1 — lower, 3.76 fold
- B6 — lower, 5.18 fold
- B7 — lower, 3.93 fold
- B8 — lower, 3.8 fold
- B2 — lower, 5.02 fold
- B9 — lower, 5.09 fold
- B10 — lower, 4.28 fold
- B11 — lower, 3.16 fold
- B13 — lower, 6.12 fold

These binders were tested against T1, Human IL-13 (assay: biochemical receptor-ligand inhibition assay, purified scFv titrated (second panel); the IL-13 receptor used is not named in Example 1).

Point of comparison: B16, IC50 8.88 nM. Against it:
- B3 — 5.2-fold higher, 46 nM
- B14 — within 1.5-fold, 8.9 nM
- B15 — within 1.5-fold, 7.86 nM
- B17 — within 1.5-fold, 11 nM
- B18 — within 1.5-fold, 7.22 nM
- B19 — within 1.5-fold, 10.8 nM
- B20 — within 1.5-fold, 11.2 nM
- B21 — within 1.5-fold, 10.7 nM
- B22 — within 1.5-fold, 7.11 nM
- B23 — 1.6-fold higher, 14.2 nM
- B24 — within 1.5-fold, 6.53 nM

Each binder was assayed against T1, Human IL-13 (assay: biochemical receptor-ligand inhibition assay, purified scFv titrated; the IL-13 receptor used is not named in Example 1).

Point of comparison: B2, IC50 8.09 nM. Against it:
- B3 — 5-fold higher, 40.6 nM
- B5 — within 1.5-fold, 9.65 nM
- B1 — within 1.5-fold, 10.8 nM
- B6 — within 1.5-fold, 7.85 nM
- B7 — within 1.5-fold, 10.3 nM
- B8 — within 1.5-fold, 10.7 nM
- B9 — within 1.5-fold, 7.98 nM
- B10 — within 1.5-fold, 9.49 nM
- B11 — 1.6-fold higher, 12.8 nM
- B12 — within 1.5-fold, 5.42 nM
- B13 — within 1.5-fold, 6.63 nM

What follows are binders tested against T1, Human IL-13 (assay: IC50 of the parent scFv divided by IC50 of the clone, biochemical receptor-ligand inhibition assay, purified scFv (second panel)).

Point of comparison: B22, Fld improvement 6.5 fold. Against it:
- B3 — lower, 1 fold
- B14 — lower, 5.2 fold
- B15 — lower, 5.8 fold
- B16 — lower, 5.2 fold
- B17 — lower, 4.2 fold
- B18 — lower, 6.4 fold
- B19 — lower, 4.2 fold
- B20 — lower, 4.1 fold
- B21 — lower, 4.3 fold
- B23 — lower, 3.2 fold
- B24 — higher, 7 fold
